Experimental data reported in article doi:10.1101/2021.11.08.467742 (bioRxiv, 2021).

B1: Escherichia coli FtsA, full length (natural protein, E. coli, UniProt P0ABH0 1-420, looked up)
chain: MIKATDRKLVVGLEIGTAKVAALVGEVLPDGMVNIIGVGSCPSRGMDKGGVNDLESVVKCVQRAIDQAELMADCQISSVYLALSGKHISCQNEIGMVPISEEEVTQEDVENVVHTAKSVRVRDEHRVLHVIPQEYAIDYQEGIKNPVGLSGVRMQAKVHLITCHNDMAKNIVKAVERCGLKVDQLIFAGLASSYSVLTEDERELGVCVVDIGGGTMDIAVYTGGALRHTKVIPYAGNVVTSDIAYAFGTPPSDAEAIKVRHGCALGSIVGKDESVEVPSVGGRPPRSLQRQTLAEVIEPRYTELLNLVNEEILQLQEKLRQQGVKHHLAAGIVLTGGAAQIEGLAACAQRVFHTQVRIGAPLNITGLTDYAQEPYYSTAVGLLHYGKESHLNGEAEVEKRVTASVGSWIKRLNSWLRKEF
notes: FtsA, Escherichia coli, full-length protein; also called EcFtsA; E. coli FtsA; source: E. coli C41(DE3), purified (HisTrap, chitin resin with intein cleavage, SEC); not shown: intein-CBD-12H, C-terminal, cleaved
B2: Escherichia coli FtsA G50E (ZipA suppressor and filament architecture mutant), full length (natural protein, E. coli, UniProt P0ABH0 1-420, looked up)
chain: MIKATDRKLVVGLEIGTAKVAALVGEVLPDGMVNIIGVGSCPSRGMDKGEVNDLESVVKCVQRAIDQAELMADCQISSVYLALSGKHISCQNEIGMVPISEEEVTQEDVENVVHTAKSVRVRDEHRVLHVIPQEYAIDYQEGIKNPVGLSGVRMQAKVHLITCHNDMAKNIVKAVERCGLKVDQLIFAGLASSYSVLTEDERELGVCVVDIGGGTMDIAVYTGGALRHTKVIPYAGNVVTSDIAYAFGTPPSDAEAIKVRHGCALGSIVGKDESVEVPSVGGRPPRSLQRQTLAEVIEPRYTELLNLVNEEILQLQEKLRQQGVKHHLAAGIVLTGGAAQIEGLAACAQRVFHTQVRIGAPLNITGLTDYAQEPYYSTAVGLLHYGKESHLNGEAEVEKRVTASVGSWIKRLNSWLRKEF
notes: FtsA, Escherichia coli, full-length protein with G50E; also called EcFtsA^G50E; source: E. coli C41(DE3), purified (HisTrap, chitin resin with intein cleavage, SEC); not shown: intein-CBD-12H, C-terminal, cleaved
B3: Escherichia coli FtsA E124A (FtsN suppressor mutant), full length (natural protein, E. coli, UniProt P0ABH0 1-420, looked up)
chain: MIKATDRKLVVGLEIGTAKVAALVGEVLPDGMVNIIGVGSCPSRGMDKGGVNDLESVVKCVQRAIDQAELMADCQISSVYLALSGKHISCQNEIGMVPISEEEVTQEDVENVVHTAKSVRVRDAHRVLHVIPQEYAIDYQEGIKNPVGLSGVRMQAKVHLITCHNDMAKNIVKAVERCGLKVDQLIFAGLASSYSVLTEDERELGVCVVDIGGGTMDIAVYTGGALRHTKVIPYAGNVVTSDIAYAFGTPPSDAEAIKVRHGCALGSIVGKDESVEVPSVGGRPPRSLQRQTLAEVIEPRYTELLNLVNEEILQLQEKLRQQGVKHHLAAGIVLTGGAAQIEGLAACAQRVFHTQVRIGAPLNITGLTDYAQEPYYSTAVGLLHYGKESHLNGEAEVEKRVTASVGSWIKRLNSWLRKEF
notes: FtsA, Escherichia coli, full-length protein with E124A; also called EcFtsA^E124A; source: E. coli C41(DE3), purified (HisTrap, chitin resin with intein cleavage, SEC); not shown: intein-CBD-12H, C-terminal, cleaved
B4: Escherichia coli FtsA I143L (FtsN suppressor mutant), full length (natural protein, E. coli, UniProt P0ABH0 1-420, looked up)
chain: MIKATDRKLVVGLEIGTAKVAALVGEVLPDGMVNIIGVGSCPSRGMDKGGVNDLESVVKCVQRAIDQAELMADCQISSVYLALSGKHISCQNEIGMVPISEEEVTQEDVENVVHTAKSVRVRDEHRVLHVIPQEYAIDYQEGLKNPVGLSGVRMQAKVHLITCHNDMAKNIVKAVERCGLKVDQLIFAGLASSYSVLTEDERELGVCVVDIGGGTMDIAVYTGGALRHTKVIPYAGNVVTSDIAYAFGTPPSDAEAIKVRHGCALGSIVGKDESVEVPSVGGRPPRSLQRQTLAEVIEPRYTELLNLVNEEILQLQEKLRQQGVKHHLAAGIVLTGGAAQIEGLAACAQRVFHTQVRIGAPLNITGLTDYAQEPYYSTAVGLLHYGKESHLNGEAEVEKRVTASVGSWIKRLNSWLRKEF
notes: FtsA, Escherichia coli, full-length protein with I143L; also called EcFtsA^I143L; source: E. coli C41(DE3), purified (HisTrap, chitin resin with intein cleavage, SEC); not shown: intein-CBD-12H, C-terminal, cleaved

Target: the molecule itself
Assay: negative stain electron microscopy on supported lipid monolayers; full-length FtsA at 0.1-0.2 mg/ml with 1 mM ATP, without or with FtsN peptide (up to 10-fold molar excess), on E. coli polar lipid monolayers; binding buffer pH 7.7

Binding result, binds:
B1
B2
B3
B4
